# Assay results published in the Human Domainome abundance scans (Beltran et al. 2025).
# ± gives the uncertainty stated by the source.
# B1: POU domain, class 4, transcription factor 1, residues 266 to 347; numbered along this chain, Q01851 (parent)
# chain: RELEAFAERFKQRRIKLGVTQADVGSALANLKIPGVGSLSQSTICRFESLTLSHNNMIALKPILQAWLEEAEGAQREKMNKP
# B2: Pituitary-specific positive transcription factor 1, residues 130 to 198; numbered along this chain, P28069 (parent)
# chain: RELEKFANEFKVRRIKLGYTQTNVGEALAAVHGSEFSQTTICRFENLQLSFKNACKLKAILSKWLEEAE
# Variants of: B1
# Assay: abundance fitness (aPCA) (normalised: wild type 0, dead -1); higher = more abundant; growth selection in yeast, the domain comes from the species named
# Details: Homo sapiens
row,Variant,abundance fitness
1,RELEAFAERFKQRRIKLGVTIADVGSALANLKIPGVGSLSQSTICRFESLTLSHNNMIALKPILQAWLEEAEGAQREKMNKP,0.022 ± 0.075
2,RELEAFAERFKQRRIKLGVTYADVGSALANLKIPGVGSLSQSTICRFESLTLSHNNMIALKPILQAWLEEAEGAQREKMNKP,-0.07 ± 0.1
3,RELEAFAERFKQRRIKLGVTQADVGSALANLKIPGVGSLSQSTIFRFESLTLSHNNMIALKPILQAWLEEAEGAQREKMNKP,-0.108 ± 0.097
4,RELEAFLERFKQRRIKLGVTQADVGSALANLKIPGVGSLSQSTICRFESLTLSHNNMIALKPILQAWLEEAEGAQREKMNKP,-0.656 ± 0.037
5,RELEAFAERFKQRRIKLGVTQADVGSALANLKIPGVGSLSQSTICRFESLTLSHNNMIALKPILQAWLEEAEGGQREKMNKP,-0.044 ± 0.023
6,RELEAFAERFKQRRIKLGVTQADVGSALANLKIPGVGSLSQSTICAFESLTLSHNNMIALKPILQAWLEEAEGAQREKMNKP,0.094 ± 0.047
7,QELEAFAERFKQRRIKLGVTQADVGSALANLKIPGVGSLSQSTICRFESLTLSHNNMIALKPILQAWLEEAEGAQREKMNKP,-0.325 ± 0.17
8,RELEAFAERFKQRRIKLGVTQADVGSALANLKIPGVGSLSQSTICRFESLTLSHNNMIALKPILQAWLEEAEGAQFEKMNKP,-0.032 ± 0.034
9,RELEAFAERFKQRRIKLGVTQADVGSALANLKIPGVGSLSQSKICRFESLTLSHNNMIALKPILQAWLEEAEGAQREKMNKP,-0.286 ± 0.15
10,RELEAFAERFKQRRIKLGVTQADVGSALANLKIPGVGSLSQSTICRFESLTLSHNNMIALKPILQAWLEEFEGAQREKMNKP,-0.289 ± 0.13
11,RELEAFAERFKQRRIQLGVTQADVGSALANLKIPGVGSLSQSTICRFESLTLSHNNMIALKPILQAWLEEAEGAQREKMNKP,0.027 ± 0.032
12,RELEAFAERFKQRRIKLGVTQADVGSALANLKIPGVGSLSQSTICRFESLTYSHNNMIALKPILQAWLEEAEGAQREKMNKP,-0.701 ± 0.26
13,RELEAFAERFKQRRIKLGVTQADVGSALANLKIPGVGSLSQSTICRFESLTCSHNNMIALKPILQAWLEEAEGAQREKMNKP,-0.351 ± 0.079
14,RELEAFAERFKQRRIKLGVTQADVGSALANLKIPGVGSLSQSTICRFESVTLSHNNMIALKPILQAWLEEAEGAQREKMNKP,-0.006 ± 0.033
15,RELEAFAERFKQRRIKLGVTQADVGSALAHLKIPGVGSLSQSTICRFESLTLSHNNMIALKPILQAWLEEAEGAQREKMNKP,0.054 ± 0.15
16,RELEAFAERFKQRRIKLGVTQADVGSALAKLKIPGVGSLSQSTICRFESLTLSHNNMIALKPILQAWLEEAEGAQREKMNKP,0.113 ± 0.088
17,RELEAFAERFKQRRIKLGVTQADVGSALANLKIPGVGSLSQSTICRFESLTLSHNNMIALKPILQAWLEEAEGAQREKMNKD,0.019 ± 0.14
18,RELEAFAERFKQRRIKLGVTQADVGSALANLKIPGVGSLSQSTICRFEHLTLSHNNMIALKPILQAWLEEAEGAQREKMNKP,-0.062 ± 0.039
19,RELEAFAERFKQRRIKLGVTQADVGSALANLKIPGVGSLSQSTICRFESLTLSHNQMIALKPILQAWLEEAEGAQREKMNKP,0.083 ± 0.063
20,RELEAFAERFKQRRIKLGVTQADVGSALANLKIPGVGSLSQSTICRFESLTLSHNFMIALKPILQAWLEEAEGAQREKMNKP,-0.136 ± 0.14
21,RELEAFAERFKQRRIKLGVTQADVGSALANLKIPGVGSLSQSTICRFESLALSHNNMIALKPILQAWLEEAEGAQREKMNKP,-0.015 ± 0.034

row,Variant,abundance fitness
1,RELEAFAERFKQRRIKLGVTQADVGSALANLKIPGVGSLSQRTICRFESLTLSHNNMIALKPILQAWLEEAEGAQREKMNKP,-0.006 ± 0.037
2,RELEAFAERFKQRRIKLGVTQADVGSALANLKIPGVGSLSQWTICRFESLTLSHNNMIALKPILQAWLEEAEGAQREKMNKP,-0.18 ± 0.051
3,RELEAFAERFKQRRIKLGVTQADVGQALANLKIPGVGSLSQSTICRFESLTLSHNNMIALKPILQAWLEEAEGAQREKMNKP,0.086 ± 0.087
4,RELEAFAERFKQRRIKLGVTQADVGSALANLKIPGVGSLSQSTICRFESLTLSHNNMLALKPILQAWLEEAEGAQREKMNKP,-0.031 ± 0.052
5,RELEAFAERFQQRRIKLGVTQADVGSALANLKIPGVGSLSQSTICRFESLTLSHNNMIALKPILQAWLEEAEGAQREKMNKP,-0.107 ± 0.12
6,RELEAFAERFKQRRNKLGVTQADVGSALANLKIPGVGSLSQSTICRFESLTLSHNNMIALKPILQAWLEEAEGAQREKMNKP,-0.113 ± 0.04
7,RELEAFAERFKQRRIKLGVTQADVGSALANLKIPGVGSLSQSTICRFESLTLSHNNMIALKPILQAWLEEAEGAQRHKMNKP,-0.092 ± 0.062
8,RELEAFAERFKQRRIKLGVTQAAVGSALANLKIPGVGSLSQSTICRFESLTLSHNNMIALKPILQAWLEEAEGAQREKMNKP,-0.009 ± 0.066
9,REWEAFAERFKQRRIKLGVTQADVGSALANLKIPGVGSLSQSTICRFESLTLSHNNMIALKPILQAWLEEAEGAQREKMNKP,-0.352 ± 0.044
10,REKEAFAERFKQRRIKLGVTQADVGSALANLKIPGVGSLSQSTICRFESLTLSHNNMIALKPILQAWLEEAEGAQREKMNKP,-0.564 ± 0.094
11,RELEAFAERFKQRRIKLGVTQADVGSALANLKIPGVGSLSQSTICRFESLTLSHNNMIALKPILQAWLEEAEGAQREKMVKP,0.098 ± 0.042
12,RELEAFAERFKQRRIKLGVTQADVGSALANLKIPGVGSLSQSTICRFESLTLSHNNMIALKPILQAWLEEAEGAQREKMKKP,-0.001 ± 0.065
13,RELEAFAERFKQRRIKLGVTQADVGSALANLKIPGVGSLSQSTICRFESLTLSHNNMIALKPILQAWLEEAEGAQREKMCKP,0.064 ± 0.06
14,RELEAFAERFKQGRIKLGVTQADVGSALANLKIPGVGSLSQSTICRFESLTLSHNNMIALKPILQAWLEEAEGAQREKMNKP,0.013 ± 0.033
15,RELEAFAERFKQRRIKLGVTQADVGSALANLKIPGVGSLSQSTICRFESLTLSHNNMIALKPILQIWLEEAEGAQREKMNKP,-0.141 ± 0.05
16,RELEAFAERFKQRRIKLGVTQADVGSALANLKIPGVGSLSQSTICRFESLTLSHNNMIALKPILQHWLEEAEGAQREKMNKP,0.001 ± 0.059
17,RELEAFAERFKQRRIKLGVTQADVGSALANLKIPGVGSLSQSTICRFESLTLSHNNMIALKPILQQWLEEAEGAQREKMNKP,-0.046 ± 0.035
18,RELEAFAERQKQRRIKLGVTQADVGSALANLKIPGVGSLSQSTICRFESLTLSHNNMIALKPILQAWLEEAEGAQREKMNKP,-1.04 ± 0.09
19,RELEAFAERFKQRRIKLGVTQADVGSALANAKIPGVGSLSQSTICRFESLTLSHNNMIALKPILQAWLEEAEGAQREKMNKP,-0.059 ± 0.029
20,RELEAFAERFKQRRIKLGVTQADVGSALANRKIPGVGSLSQSTICRFESLTLSHNNMIALKPILQAWLEEAEGAQREKMNKP,-0.005 ± 0.024
21,RELEAFAERFKQRRIKLGVTQADVGSALANMKIPGVGSLSQSTICRFESLTLSHNNMIALKPILQAWLEEAEGAQREKMNKP,0.003 ± 0.035

row,Variant,abundance fitness
1,RELEAFAIRFKQRRIKLGVTQADVGSALANLKIPGVGSLSQSTICRFESLTLSHNNMIALKPILQAWLEEAEGAQREKMNKP,-0.234 ± 0.12
2,RELEAFAWRFKQRRIKLGVTQADVGSALANLKIPGVGSLSQSTICRFESLTLSHNNMIALKPILQAWLEEAEGAQREKMNKP,-0.284 ± 0.078
3,RELEAFAYRFKQRRIKLGVTQADVGSALANLKIPGVGSLSQSTICRFESLTLSHNNMIALKPILQAWLEEAEGAQREKMNKP,-0.017 ± 0.19
4,RELEAFAERFKQRRIKLGVTQADVGSALANLKIPGVGSLSQSTICRFESLTLSHNNMIALKPILQAWLEEAEGAQREKFNKP,0.024 ± 0.04
5,RELEAFAERFKQRRIKLGVTQADVGSALANLKIPGVGSLSQSTICRFESLTLSHNNMIALKPILQAWLEEAEGAQREKRNKP,-0.025 ± 0.021
6,RELEAFAERFKQRRIKLGVTQADVNSALANLKIPGVGSLSQSTICRFESLTLSHNNMIALKPILQAWLEEAEGAQREKMNKP,-0.117 ± 0.17
7,RELEAFAERFKQRRIKLGVTQADVCSALANLKIPGVGSLSQSTICRFESLTLSHNNMIALKPILQAWLEEAEGAQREKMNKP,0.025 ± 0.066
8,RELEAFAERFKQRRIKLGVTQADVGSALANLKIPGVGSTSQSTICRFESLTLSHNNMIALKPILQAWLEEAEGAQREKMNKP,-0.138 ± 0.085
9,RELEAFAERFKQRRIKLGVTQADVGSALANLKIPGVGSSSQSTICRFESLTLSHNNMIALKPILQAWLEEAEGAQREKMNKP,-0.33 ± 0.064
10,RELEAFAERFKQRRIKLGVTQADVGSALANLKIPGVGSLSQSTICRFESLTLSHNNMIALKPILQAWPEEAEGAQREKMNKP,-0.715 ± 0.18
11,RELCAFAERFKQRRIKLGVTQADVGSALANLKIPGVGSLSQSTICRFESLTLSHNNMIALKPILQAWLEEAEGAQREKMNKP,-0.149 ± 0.079
12,RELYAFAERFKQRRIKLGVTQADVGSALANLKIPGVGSLSQSTICRFESLTLSHNNMIALKPILQAWLEEAEGAQREKMNKP,-0.153 ± 0.13
13,RELIAFAERFKQRRIKLGVTQADVGSALANLKIPGVGSLSQSTICRFESLTLSHNNMIALKPILQAWLEEAEGAQREKMNKP,0.107 ± 0.08
14,RELEAFAERFKARRIKLGVTQADVGSALANLKIPGVGSLSQSTICRFESLTLSHNNMIALKPILQAWLEEAEGAQREKMNKP,-0.004 ± 0.03
15,RELEFFAERFKQRRIKLGVTQADVGSALANLKIPGVGSLSQSTICRFESLTLSHNNMIALKPILQAWLEEAEGAQREKMNKP,0.042 ± 0.089
16,RELEAFAERFKQRRIKLGVTQADVGSALANLKIPGVGSLSQSTICRFESLTLSHNNQIALKPILQAWLEEAEGAQREKMNKP,-0.197 ± 0.064
17,RELEAFAERFKQRRIKLGVTQADVGSALANLKIPGVGSLSQSTICRFESLTLSHNNMIALKPILQAWLEEAEGALREKMNKP,-0.001 ± 0.04
18,RELEAFAERFKQRRIKLGVTQADVGSALANLKIPGVGSLSQSTICRFESLTLSHNNMIALKPILQAWLEEAEGAYREKMNKP,-0.085 ± 0.074
19,RELEAFAERFKQRRIKLGVTQADVGSALANLKIPGVGSLSQSTICRFESLTLSHNNMIALKPILQAWLEEAEGAIREKMNKP,-0.051 ± 0.088

# Variants of: B2
# Assay: as above
# Details: Homo sapiens
row,Variant,abundance fitness
1,RELEKFANEFKVRRIKLGYTQTNVGEALAAVHGSEFSQTTICRFENLQLSFKNACKLKAILSKWLEEAP,-0.433 ± 0.23
2,RELEKFANEFKVRRIKLGYTQTNVGEALAAVHGSEFSQTTICRFENLQLSFKNACKLKAILSKWLEEAF,-0.616 ± 0.32
3,RELEKFANEFKVRRIKLGYTQTNVGEALAAVHGSEFSQTTICRFENLQLSFKNACKLKAILSKWLEEAQ,-0.635 ± 0.22
4,RELEKFANEFKVRRIKLGYTQTNVGEALAAVHGSEFSQTTICRFENLQLSFKNACKLKAILSKWLEEAS,-0.4 ± 0.14
5,RELEKFANEFKVRRIKLGYTQTNVGEALAAVHGSEFSQTTICRFENLQLSFKNACKLKAILSKWLEEAV,-0.874 ± 0.29
6,RELEKFANEFKVRRIKLGYTQTNVGEALAAVHGSEFSQTTICRFENLQLSFKNACKLKAILSKWLEEAL,-0.719 ± 0.28
7,RELEKFANEFKVRRIKLGYTQTNVGEALAAVHGSEFSQTTICRFENLQLSFKNACKLKAILSKWLEEAR,-0.706 ± 0.13
